# Measurements: US12312397B2, “Anti-O2 antibodies and uses thereof” (priority 2016, dated 2025)
# B1: KPN179: Class III anti-O2 antigen human mAb; VH SEQ ID NO: 53, VL SEQ ID NO: 54 (antibody, V domains shown)
# VH: EVQVVESGGGLVKPGGSLRLSCAASGFTFNNAWMNWVRQAPGKGLEWVGRIKRKADGETTDYPASVKGRFTVSRDDSKNTIYLQMNSLKTEDTAIYYCTTRIVTTNDYWGQGTLVTVSS
# VL: QSALTQPPSVSGSPGQSVTISCTGTSSDVGYYDYVSWYQQHHPGKAPKHMIYDVNKRPSGVPDRFSGSKSGNTASLTISGLQAEDEADYYCCSYAGGDTFVFGTGTKVTVL
# modifications: Description of Artificial Sequence: SyntheticKPN179 VH polypeptide; Description of Artificial Sequence: SyntheticKPN179 VL polypeptide
# Columns and labels:
# [1] = system: O1 LPS activation of NF-κB in RAW264.7-lux cells; assay: LPS neutralization assay (NF-κB luciferase, RAW264.7-lux), O1 LPS; type: cell-based, murine; details: secondary screening
# Method in brief: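 Serially diluted mAbs (human IgG1) pre-mixed 1:1 with LPS at 4 °C for 1 hr, then diluted 1:10 onto RAW264.7-lux cells carrying an NF-κB-driven firefly luciferase; 2.5 h at 37 °C. Luminescence read; % inhibition relative to no-antibody and negative-control mAb wells.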
# KPC strain Kp961842_O2 = assay: Lethal pneumonia model, KPC strain Kp961842_O2; type: in vivo, Klebsiella pneumoniae; details: C57/BL6 mice, 2e8 CFU; mAb 2 mg/kg 1 hour post infection; survival
# O2 LPS = assay: ELISA binding to O2 LPS; parameters: species or system Klebsiella pneumoniae; details: secondary screening, ELISA
# Method in brief: (§1)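 Serial dilutions of monoclonal antibodies bound to LPS-coated plates for 1 h at room temperature, detected with alkaline phosphatase-conjugated anti-human IgG (1 h) and pNPP substrate (30 min). Absorbance read at 405 nm; EC50 values derived from binding curves.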
# O1 LPS = assay: ELISA binding to O1 LPS; parameters: species or system Klebsiella pneumoniae; details: secondary screening
# Method in brief: as §1
molecule,measurement,setting,value
B1,neutralization of LPS-O1,[1],did not show LPS-neutralizing activity
same,"protection from lethal bacterial challenge, Kp961842_O2",KPC strain Kp961842_O2,protected
same,binding to LPS-O2,O2 LPS,bind
same,binding to LPS-O1,O1 LPS,bind
